Experiments:
[1] = target: FITC-labeled Dcp2-UBM2 peptide (aa 694-718) (S. cerevisiae) (UniProt P53550); assay: fluorescence polarisation
[2] = target: FITC-labeled Dcp2-UBM1 peptide (aa 456-479) (S. cerevisiae) (UniProt P53550); assay: fluorescence polarisation
[3] = target: CBP-Upf1-CH-His (S. cerevisiae); assay: SDS-PAGE band identified by Western blotting and mass spectrometry
CBP-Upf1-CH-HD I693R = target: T1, CBP-Upf1-CH-HD I693R (S. cerevisiae, UniProt P30771 54-851, I693R); assay: pull-down
T1 sequence: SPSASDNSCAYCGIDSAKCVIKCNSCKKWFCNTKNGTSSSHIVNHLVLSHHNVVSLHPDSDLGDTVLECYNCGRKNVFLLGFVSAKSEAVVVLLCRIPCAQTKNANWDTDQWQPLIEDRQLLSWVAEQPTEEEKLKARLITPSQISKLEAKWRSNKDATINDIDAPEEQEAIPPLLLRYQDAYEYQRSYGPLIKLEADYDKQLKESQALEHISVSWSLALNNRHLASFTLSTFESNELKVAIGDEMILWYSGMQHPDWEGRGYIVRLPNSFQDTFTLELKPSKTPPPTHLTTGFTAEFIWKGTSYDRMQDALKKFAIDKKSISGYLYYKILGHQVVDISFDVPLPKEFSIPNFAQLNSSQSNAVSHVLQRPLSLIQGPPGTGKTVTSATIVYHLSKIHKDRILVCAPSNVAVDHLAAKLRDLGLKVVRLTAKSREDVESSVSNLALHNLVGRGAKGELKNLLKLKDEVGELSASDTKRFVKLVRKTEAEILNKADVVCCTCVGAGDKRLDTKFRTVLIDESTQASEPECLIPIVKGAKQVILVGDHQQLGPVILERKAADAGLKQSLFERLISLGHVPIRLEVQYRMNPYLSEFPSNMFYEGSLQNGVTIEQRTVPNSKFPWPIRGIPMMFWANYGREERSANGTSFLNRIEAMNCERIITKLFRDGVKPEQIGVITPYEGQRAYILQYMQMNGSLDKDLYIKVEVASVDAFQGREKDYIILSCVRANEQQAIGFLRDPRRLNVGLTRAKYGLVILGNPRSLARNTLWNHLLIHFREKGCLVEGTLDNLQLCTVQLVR

[4] = target: CBP-Upf1-CH-His (S. cerevisiae); assay: fluorescence polarisation
GST-Ebs1 (aa 1-591) = target: T2, GST-Ebs1 (aa 1-591) (S. cerevisiae, UniProt Q03466 1-591); assay: pull-down
T2 sequence: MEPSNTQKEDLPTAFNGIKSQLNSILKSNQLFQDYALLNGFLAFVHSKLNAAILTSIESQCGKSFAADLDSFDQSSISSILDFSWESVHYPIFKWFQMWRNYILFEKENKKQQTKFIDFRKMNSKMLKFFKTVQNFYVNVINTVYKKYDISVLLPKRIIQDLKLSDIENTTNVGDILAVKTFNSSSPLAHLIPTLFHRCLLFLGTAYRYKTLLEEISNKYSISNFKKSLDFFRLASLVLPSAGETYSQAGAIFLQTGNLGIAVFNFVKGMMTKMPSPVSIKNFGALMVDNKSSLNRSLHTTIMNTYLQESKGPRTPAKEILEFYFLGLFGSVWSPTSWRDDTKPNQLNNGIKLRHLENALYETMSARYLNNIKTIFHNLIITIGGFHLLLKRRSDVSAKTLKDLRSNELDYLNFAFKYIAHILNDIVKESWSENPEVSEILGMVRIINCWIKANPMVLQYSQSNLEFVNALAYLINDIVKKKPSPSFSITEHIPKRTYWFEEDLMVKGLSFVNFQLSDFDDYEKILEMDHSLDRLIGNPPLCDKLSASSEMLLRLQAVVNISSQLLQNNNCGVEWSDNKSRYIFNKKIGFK

[5] = target: T3, CBP-Upf1-FL (S.c. Upf1 full-length) (S. cerevisiae, UniProt P30771 1-971); assay: pull-down
T3 sequence: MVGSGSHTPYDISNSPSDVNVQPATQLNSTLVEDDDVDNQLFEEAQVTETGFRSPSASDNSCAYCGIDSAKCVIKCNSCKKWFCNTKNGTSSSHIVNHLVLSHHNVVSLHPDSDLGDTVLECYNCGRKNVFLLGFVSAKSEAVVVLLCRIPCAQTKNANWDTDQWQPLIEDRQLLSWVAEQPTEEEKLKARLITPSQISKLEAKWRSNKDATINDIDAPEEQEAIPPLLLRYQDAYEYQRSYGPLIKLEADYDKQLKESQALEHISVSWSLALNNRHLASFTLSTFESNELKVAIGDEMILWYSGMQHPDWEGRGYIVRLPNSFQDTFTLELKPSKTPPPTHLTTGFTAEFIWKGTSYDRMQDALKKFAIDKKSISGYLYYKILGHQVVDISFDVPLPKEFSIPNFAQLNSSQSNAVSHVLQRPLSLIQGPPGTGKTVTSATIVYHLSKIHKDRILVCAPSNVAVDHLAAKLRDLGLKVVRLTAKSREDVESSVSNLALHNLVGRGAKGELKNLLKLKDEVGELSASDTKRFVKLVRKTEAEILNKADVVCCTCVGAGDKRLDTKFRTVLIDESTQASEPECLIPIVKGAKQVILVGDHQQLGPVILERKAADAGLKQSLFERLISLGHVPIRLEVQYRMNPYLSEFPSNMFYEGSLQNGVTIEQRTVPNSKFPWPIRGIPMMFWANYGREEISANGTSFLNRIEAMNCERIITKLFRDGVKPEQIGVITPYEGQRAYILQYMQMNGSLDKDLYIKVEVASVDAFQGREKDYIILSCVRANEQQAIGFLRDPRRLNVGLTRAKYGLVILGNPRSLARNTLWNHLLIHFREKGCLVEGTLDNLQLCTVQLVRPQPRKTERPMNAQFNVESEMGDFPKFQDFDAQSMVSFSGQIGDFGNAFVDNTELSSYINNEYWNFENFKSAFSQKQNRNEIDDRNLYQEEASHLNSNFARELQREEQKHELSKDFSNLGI

CBP-Upf1-CH-HD = target: T4, CBP-Upf1-CH-HD (S. cerevisiae, UniProt P30771 54-851); assay: native gel or EMSA
T4 sequence: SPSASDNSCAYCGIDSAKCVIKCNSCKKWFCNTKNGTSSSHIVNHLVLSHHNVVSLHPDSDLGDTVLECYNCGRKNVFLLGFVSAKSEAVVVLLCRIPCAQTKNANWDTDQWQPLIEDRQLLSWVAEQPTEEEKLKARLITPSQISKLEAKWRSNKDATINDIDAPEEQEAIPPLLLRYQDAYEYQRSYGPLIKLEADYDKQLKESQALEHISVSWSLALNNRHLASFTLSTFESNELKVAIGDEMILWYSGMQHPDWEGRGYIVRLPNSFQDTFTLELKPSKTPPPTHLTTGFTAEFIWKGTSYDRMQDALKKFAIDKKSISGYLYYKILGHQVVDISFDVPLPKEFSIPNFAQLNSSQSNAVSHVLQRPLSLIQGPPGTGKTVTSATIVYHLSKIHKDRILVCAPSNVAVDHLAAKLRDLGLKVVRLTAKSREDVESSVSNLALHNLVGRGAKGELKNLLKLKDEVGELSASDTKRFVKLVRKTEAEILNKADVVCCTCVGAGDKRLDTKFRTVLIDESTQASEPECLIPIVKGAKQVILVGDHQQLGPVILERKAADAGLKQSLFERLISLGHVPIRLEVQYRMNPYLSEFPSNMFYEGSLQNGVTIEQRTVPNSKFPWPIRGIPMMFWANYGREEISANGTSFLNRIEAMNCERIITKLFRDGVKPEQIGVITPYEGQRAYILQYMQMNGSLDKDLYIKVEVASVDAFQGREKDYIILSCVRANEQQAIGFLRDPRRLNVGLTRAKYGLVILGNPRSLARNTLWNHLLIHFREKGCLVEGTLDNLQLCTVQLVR

Chain of FITC-labeled Dcp2-UBM1 peptide (aa 456-479) (S. cerevisiae) (P53550 456-479): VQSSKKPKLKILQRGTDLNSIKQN
Chain of FITC-labeled Dcp2-UBM2 peptide (aa 694-718) (S. cerevisiae) (P53550 694-718): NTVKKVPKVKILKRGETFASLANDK

Work on CBP-Upf1-CH-His (domain or fragment) yielded a Kd [1] of 25.1 µM, a Kd [2] of 60.1 µM and a stoichiometry N [3] of 2.

B1: Upf2 (933-1089)-His (domain or fragment)
chain: SDSDLEYGGDLDADRDIEMKRMYEEYERKLKDEEERKAEEELERQFQKMMQESIDARKSEKVVASKIPVISKPVSVQKPLLLKKSEEPSSSKETYEELSKPKKIAFTFLTKSGKKTQSRILQLPTDVKFVSDVLEEEEKLKTERNKIKKIVLKRSFD
With B1 the binding result (CBP-Upf1-CH-HD I693R) was “binds” and the Kd [4] was 430 nM.

B2: CBP-Upf1-Ct (domain or fragment)
chain: PQPRKTERPMNAQFNVESEMGDFPKFQDFDAQSMVSFSGQIGDFGNAFVDNTELSSYINNEYWNFENFKSAFSQKQNRNEIDDRNLYQEEASHLNSNFARELQREEQKHELSKDFSNLGI
B2: binds (GST-Ebs1 (aa 1-591)).

B3: Nmd4-His (C-terminal His-tagged Nmd4) (natural protein)
chain: MTQYNFIIDASAFEKGLGNIKRWCSDCTEAVTLNFYIPTFTLNELDFLQQRRKSFAARESLKFIDRLDDSKFANLKVFIEFPEVLDIILWSDVMEHNDSSGKINIAKLPKRLKNLLKSCIYKCYLEGNEGLHWFLISEDPQIREMAMQCNIPSCSIVDVDSILSKDMNDKSFRESEKFNNMMLKNGTKEESENGREIIRTNFNKTVYASRGTGELWSP
B3: binds [5]; binds (CBP-Upf1-CH-HD).

Reference: article PMC11897886 (Nucleic Acids Research, 2024)
